Target: GST-BLM RQC loopΔ10 (human) (UniProt P54132)
Test: EMSA
Conditions: 5 uM protein, FP: 10 mM Tris-HCl pH 7.5, 25 mM NaCl, 1 mM DTT, 100 pM DNA, 25 C, EMSA: 10 mM Tris-HCl pH 8.0, 2 mM DTT, 1 mM EDTA, 20% glycerol, 0.2 uM DNA, 4 C, 30 min

GST-BLM RQC loopΔ10 (human), sequence (P54132 1068-1209, stated change not applied): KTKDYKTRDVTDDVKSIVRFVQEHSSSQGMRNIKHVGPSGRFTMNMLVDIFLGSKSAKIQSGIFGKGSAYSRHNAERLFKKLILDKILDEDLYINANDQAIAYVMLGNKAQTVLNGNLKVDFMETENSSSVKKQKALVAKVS

Sequence: CTAGAACAGCATGTCCTAGCAAGCCAGAATTC / GAATTCTGGCTTGCTAGGACATCTTTGCCCAC / GTGGGCAAAGATGTCCTAGCAATGTAATCGTC / GACGATTACATTGCTAGGACATGCTGTTCTAG [Holliday junction (HJ)]
- binding signal (% loss of binding vs wild type): 50

Reference: paper PMC6505963
